# Measurements taken from patent US20260063625A1, “COMPOSITIONS FOR AND METHODS OF DETECTING FOOD TOXINS” (priority 2022, published 2026).
# Where a chain is given by its changes, count along the chain named. Numbers in names are those of the source.
# B1: E540D: RcSxph mutant E540D (protein)
# chain: MAPTFQTALFFTIISLSFAAPNAKQVRWCAISDLEQKKCNDLVGSCNVPDITLVCVLRSSTEDCMTAIKDGQADAMFLDSGEVYEASKDPYNLKPIIAEPYSSNRDLQKCLKERQQALAKKMIGHYIPQCDEKGNYQPQQCHGSTGHCWCVNAMGEKISGTNTPPGQTRATCERHELPKCLKERQVALGGDEKVLGRFVPQCDEKGNYEPQQFHGSTGYSWCVNAIGEEIAGTKTPPGKIPATCQKHDLVTTCHYAVAMVKKSSAFQFNQLKGKRSCHSGVSKTDGWKALVTVLVEKKLLSWDGPAKESIQRAMSKFFSVSCIPGATQTNLCKQCKGEEGKNCKNSHDEPYYGNYGAFRCLKEDMGDVAFLRSTALSDEHSEVYELLCPDNTRKPLNKYKECNLGTVPAGTVVTRKISDKTEDINNFLMEAQKRQCKLFSSAHGKDLMFDDSTLQLALLSSEVDAFLYLGVKLFHAMKALTGDAHLPSKNKVRWCTINKLEKMKCDDWSAVSGGAIACTEASCPKGCVKQILKGEADAVKLEVQYMYEALMCGLLPAVDEYHNKDDFGPCKTPGSPYTDFGTLRAVALVKKSNKDINWNNIKGKKSCHTGVGDIAGWVIPVSLIRRQNDNSDIDSFFGESCAPGSDTKSNLCKLCIGDPKNSAANTKCSLSDKEAYYGNQGAFRCLVEKGDVAFVPHTVVFENTDGKNPAVWAKNLKSEDFELLCLDGSRAPVSNYKSCKLSGIPPPAIVTREESISDVVRIVANQQSLYGRKGFEKDMFQLFSSNKGNNLLFNDNTQCLITFDRQPKDIMEDYFGKPYYTTVYGASRSAMSSELISACTIKHC
# B2: D794E: RcSxph mutant D794E (protein)
# chain: B1 chain with D559E, D813E
# B3: MaSxph: Saxiphilin of Mantella aurantiaca, Golden mantella, SEQ ID NO:3 (protein, listed as Mantella aurantiaca)
# chain: MALTFQTALYFTIIGLSFVTSSARDVRWCVISDLEQKKCNDLVGSCKVSGITLVCVHRSSTENCMTAIRDEQADAMFLDSGDVYKASMSPYNLKPIIAESYSSHKECLKKRQEALGGANVLGQFVPQCDEKGSYQPQQCYGSTGHCWCVNAIGEEIVGTKTQPGQTQATCERHDQTKCLKDRQKALAKKMIGGFVPQCDEKGNFKPRQCHGSTGYCWCTNANGEKIAATNTPPQQSPPTCERHDLDSCHYAVAVVKKSSIFQFNQLKGKRSCHSGVSKTDGWKAPVSVLVDKNLLSWDRAAKESIEKAVSKFFSDSCIPGATETNLCNQCMGEGGKKCMSSHDEPYYGDHGAFRCLKEDKGDVAFLKNTVLSDTHSEDYELLCPDNTRKPLNKYKECNLGKVPADAVVTRKSGDKIKDINDFLLEAQKKHCQLFSSAHGKDLMFDDSTTQLSLLPPEVDVFFFLGVQWLNTMKTLTADVKPPSKNKVRWCTVNNLEKMKCDDWSAVSGGAIECTEASSPEHCIKQIVKGEADAVTLDVQYMYEALKCGLLPAVEEYHNKDDFGPCKTPGSEIKDFGAKRAVALVKKSNKDINWHNLKGKKSCHTGVGDQAGWIIPVGLISRQIDNCNIDSFFSESCAPGSDTTSNFCKLCIGDPSNPMANTKCSLSDKEAYHGNEGAIRCLVEKGDVAFVHHTAVFENTDGKNPAEWAANLKSEDFEILCLDGSRAPVSNYMTCRLSGVPPRAIVTREESVSDVVRILINQQSLFGRNGFEKDMFQMFSSNKGQNLLFNDGTQCLIEFDRQPRGIMEDYFGKPYYNAVYNTSKCVLPSELTSACTFKHC
# B4: RiSxph: Saxiphilin of Ranitomeya imitator, Mimic poison frog, SEQ ID NO:6 (protein)
# chain: MRRSSYAASQEMRMTLRVLLCLCLWALSSAAPNTRNVRWCVTSDTEEQKCNDLVTSCHVDEILLICVKKSSTEDCVRAISNGEADAISLDSKDVYKASLDPFNLKPIMTEAYSESEHTPCMRHRQSVLGGKIMKIGAFVPKCDEKGNYVPKQCHGSTGYCWCLNENGEEIEGTRTPPGNPGLTCENKANKPPCLKERQKLLSAKPSPAVFVPECDEKGNYRPQQSHVYSWCVDEYGEEVFGSRSFPGKPPKPCEASGETPCIKERNKVLSAAEPLLGAFVPDCDEKGYFSPLQSHGSTGYSWCVTKNGDEIKGTRTGPGQSPPTCEVPAPVTLHYAVAVVKKSSSFHLDQLKGKRSCHSAVGEAAGWVAPLNVLLKKKLLLWEEPEPKTIEKVASEIFSASCAPGAQEANLCEQCAGQEDKCTRGPGEPYYGDEGAFRCLREDKGDVAFVEDTALTGQYSDNFELLCPDNTRRPLSQYKICNFGRIPRHAVVTRSSGDKMKDITEYLLQAQKKECKLFSSTHGKDLLFEDTTSALIALPSAMDTFLFLGPDLFNGMKTLNGARPPQVNQQIRWCPQSKNEKKKCDDWSSVSGGAIKCTEPSSGLECIKMILKGEAEAVNLDIEHSYIALKCGLLPSVDEYRNKDDLIPCQIPGSEYSEFGSYRIVALVKKTDKDLTWNNLQGKKSCHTRAGDMIGWNIPVYLISKKTKNCDLGSYFSQSCAPGSPIDSNLCKLCIGDPQNPQANTKCSISDKEAYYGHEGAIRCLVEKGDVAFVPHTAIFENTDGKNPALWAKDLKSTDFELLCPDGSRAPVNDYKKCKLSGIANQIAITRPESVKDVVRIIQNQQSLYGRTGSQKDIFQMFSSSYGQNLLFSDRTQCLVEFDRMLDRDIMDDYFGKPFHKHLLRDNDCLPKSALASACSFHH
# modifications: Ranitomeya imitator
# B5: OsSxph: Saxiphilin of Oophaga sylvatica, Little devil poison frog, SEQ ID NO:5 (protein, listed as Oophaga sylvatica)
# chain: MRMTLQVLLCLCLLVLSSAAPNSRNVRWCVTSDTEEQKCNDLVTSCHVDEILLICVKKSSKEDCVRAISNGEADAISLDSKDVYKASLDPFNLKPIMTEAYSESEQTPCMRHRQSVLGGKKMIIGAFVPKCDEKGNYVPKQCHDSTGFCWCLNENGEEIEGTRTPPGNSGLTCENKANKPPCLKERQKLLSAKPSPAVFVPECDEKGNYRPEQSHVYSWCVDEYGEEVLGSRTFPGKPPKPCEASGETPCIKERNKVLSAAEPLPGAFVPDCDEKGYFSPLQFHGSTGHSWCVTKNGEEIKGTRTRPGQTPPTCDVPAPATLHYAVAVVKKSSSFQLDQLKGKRSCHSAVGEAAGWVAPLNVLLKKKFLLWEEPEQKSTEKVASEIFSASCAAGAQEANLCEQCAGQEDKCTRGPGEPYYGDEGAIRCLRDDKGDVAFVEDTALTGQYSDNFELLCPDNTRRPLSQYKICNFGSVPRHAVVTRSTGDKMKEITEYLLQAQKKECKLFSSTHGKDLLFEDTTSALIALPSGMDTFLFLGPDLFNGMKTLNGAHPPRVKQKIRWCPQNKNEKKKCDDWSSVSGGSIKCTEPSSALECIKMILKDEADAVNLDAEHAYTALKCGLLPSLEEYRNKDDLIVCQIPGAEYSEFGSYRIVALVKKTDKDITWNNLQGKKSCHTHVGDMIGWNIPVYLISKKTKNCDLGSYFSQSCAPGSPIDSNLCKLCIGDPQNTEANTKCSLSDKEAYYGNEGAVRCLVETGDVAFVPHTAVFENTDGKNPALWAKDLKSTDFELLCPDGSRAPVSDYKKCKLSGIANHVTVTRPESVKDVVRITQNQESLYGRTGSQKDIFQMFSSSYGQNLLFNDRTQCLFEFDRMLDRDIMDDYLGKPFHKHLMSDNDCLPKSALATACSFHH
# B6: Q787A: RcSxph mutant Q787A (protein)
# chain: B1 chain with D559E, Q806A
# B7: Y795A: RcSxph mutant Y795A (protein)
# chain: B1 chain with D559E, Y814A
# B8: T563A: RcSxph mutant T563A (protein)
# chain: B1 chain with D559E, T582A
# B9: K789A: RcSxph mutant K789A (protein)
# chain: B1 chain with D559E, K808A
# Experiment: Isothermal titration calorimetry (ITC) of STX into Sxph
# Format: binding
# Conditions: 25° C.
# Procedure: ITC measurements were performed at 25° C. using a MicroCal PEAQ-ITC calorimeter (Malvern Panalytical). […]. This STX stock was diluted with the SEC buffer to prepare 100 μM or 300 μM STX solutions having a final buffer composition of 135 mM NaCl, 9 mM HEPES, pH 7.4. […]. The calorimetric experiment settings were: reference power, 5 μcal/s; spacing between injections, 150 s; stir speed 750 rpm; and feedback mode, high. Data were analyzed using MicroCal PEAQ-ITC Analysis Software (Malvern Panalytical) using a single binding site model. The heat of dilution from titrations of 100 μM STX in 135 mM NaCl, 9 mM HEPES, pH 7.4 into 135 mM NaCl, 9 mM HEPES, pH 7.4 was subtracted from each experiment to correct the baseline.
Molecule,[…]G,"[…]H (kcal mol^−1), binding enthalpy",[…]S (cal mol^−1 K^−1)
B1,-9.8 ± 0.1 kcal/mol,-16.3 ± 1.7 kcal/mol,−21.9 ± 5.7 cal mol^−1 K^−1
B2,-8.9 ± 0.1 kcal/mol,-11.8 ± 0.0 kcal/mol,−8.9 ± 0.1 cal mol^−1 K^−1

# Experiment: Fluorescence polarization (FP) binding to fluorescein labeled STX
# Conditions: […]G = RT ln (Kd(XSxph)/Kd(RcSxph)); T = 298K
# Procedure: […]; Measurements were performed at 25° C. on a Synergy H1 microplate reader (BioTek) using the polarization filter setting (excitation 485 nm, emission 528 nm). […]. The dissociation constants were calculated using GraphPad Prism by fitting fluorescence millipolarization (mP=P·10^−3, where P is polarization) as a function of Sxph concentration using the equation: P={(Pbound−Pfree) [Sxph]/(Kd+[Sxph])}+Pfree, where P is the polarization measured at a given Sxph concentration, Pfree is the […], and Pbound is the maximum polarization of Sxph bound by F-STX (Rossi and Taylor, Hansen et al.).
row,Molecule,[…]G (kcal mol^−1) relative to RcSxph
1,B3,-1.73 kcal/mol
2,B4,-1.32 kcal/mol
3,B5,-1.32 kcal/mol

# Same assay, conditions: […]G = RT ln (KdSxph mutant/KdSxph); T = 298K
row,Molecule,[…]G (kcal mol^−1) relative to wild-type RcSxph
1,B1,1.54 kcal/mol
2,B6,0.25 kcal/mol
3,B2,2.94 kcal/mol
4,B7,0.08 kcal/mol
5,B8,-0.20 kcal/mol
6,B9,-0.22 kcal/mol
